According to the supplement of paper PMC9170038:

System: MS2 coat protein
Assay: apparent KD of MS2 coat protein; higher = weaker reporter binding
Details: Eterna round: R107
Method: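 RNA-MaP round R107: designed RNA switches with theophylline, tryptophan, arginine or FMN aptamers are transcribed on-chip within common flanks. They are titrated with SNAP-549-labelled MS2 coat protein in RNA-MaP buffer (100 mM Tris pH 7.5, 80 mM KCl, 4 mM MgCl2), without ligand or with the indicated ligand. Median apparent KD per design.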

[1] = input ligand: theophylline 20 uM
[2] = input ligand: theophylline 2 mM
[3] = input ligand: tryptophan 2.4 mM

Sequence	apparent KD of MS2 coat protein (input ligand: arginine 13.2 mM)	apparent KD of MS2 coat protein [1]	apparent KD of MS2 coat protein [2]	apparent KD of MS2 coat protein (input ligand: none)	apparent KD of MS2 coat protein [3]
AGAUUCGACACGGCCGCCACUCUACACGGAUUUCCGAGUGUCGAACAUGAGGAUCACCCAUGUGGGAGGACCGGGUGUUGAGUCU [XTryp B #11]	164 nM	704 nM	944 nM		
CUAUAUAUAAGAAGGAGCGUCGAAAAUGGGUAAACAUGAGGAUCACCCAUGUAAAGGGAACGACAGGUAGGUCGCUUAUAUAUAG [AstromonsSSArgB#5]	151 nM	169 nM	184 nM	191 nM	206 nM
AUUAAUAGUUGUGAUACCAGACGAACAUGAGGAUCACCCAUGUAACUUUUAGGUGUUGUAGUCCCUUGGCAGCACUAUGUAGUUA [JR_SSTheophyB_Sub013]	31.1 nM	44.5 nM			32.6 nM
CGAUGAUCGAGGGAUACCAGAAAUGGUAUUCCUUUAUUUCUUACAUGAGGAUCACCCAUGUUCCCUUGGCAGCUUUUGAUCAUCG [ETHB #7]	60.5 nM	86.1 nM			74.6 nM
CGUAUUGGAAACAGUACGAGUGAUCCGGUCCGAGGACCGGUACGGCCGCCACUCGAAAAUAAAUAACAUGAGGAUCACCCAUGUA [Ex Tryptophan A 8]	19.5 nM	21.6 nM	19.8 nM		
GAGUUGUGCUCAGGCCCGACUCGCUGAGAAGGAGCGCACUAAGGUGCAGGUAGGUCGCUCAGGAAUACAUGAGGAUCACCCAUGU [Erlaatti]	21.7 nM	29.9 nM	28.5 nM	22.9 nM	25.2 nM
ACAUGAGGAUCACCCAUGUACAUAAGGGAAGGAGCGCGGUGAAACGCAGGUAGGUCGCCCAUAAUAACAAUAAAUAAAUUCAUGU [LeftA1]	19.8 nM	21 nM	19 nM	13.5 nM	15.8 nM
ACAUGAGGAUCACCCAUGUUCCUCAUUGAUACCAGUGAAUUUAGACGCCCUUGGCAGCGAGUUUAAGAAGAAGAAGUUUUUUUUU [6.C]	124 nM	819 nM			875 nM
GGCCAUGGAAACAUGGCGGCGGCAUAUGCGCGAGGACCGGUACGGCCGCCACUCGGGCAACAUGAGGAUCACCCAUGUUCCUCAU [ETA NP+V+V2 #24 +-Same Structure]	67.4 nM	356 nM	388 nM		
GGUUGGUGUAGAGAUAUAUUGAUUACUGAAGGAGCGGGAAGAAACCCAGGUAGGUCGCAGAGAUCCACAUGAGGAUCACCCAUGU [!0.L]	26.7 nM	49.5 nM	59.3 nM	38.6 nM	27.5 nM
UGUCGUAGACAUGAGGAUCACCCAUGUCCACGAGGACCGGUACGGCCGCCACUCGGGAUAUAAACCGUUACGGGUGGGUGGUGUU [Maarlainin]	16 nM	26 nM	21.2 nM		
CUGCUACAUGAGGAUCACCCAUGUGGAGAUACCAGCCUGAACGAUGGCCCUUGGCAGCUCUUAGCUGGUGAUCAUAUAUUUCAGA [Zazaat]	25.3 nM	68.2 nM			28.2 nM
AACUAAUCACAUGAGGAUCACCCAUGUGAUACCAGCUAAUCCCAAAGCCCUUGGCAGCACCUUUGGGUCCCGGUGUGUUUGAACA [Onceesa]	9.42 nM	12.3 nM			9.33 nM
GAACAUAUGGAUACUAUUAUGAGCACAGAAGGAGCGAGCGGAAGCUCAGGUAGGUCGCUGGGUAACAUGAGGAUCACCCAUGUUG [XArg-A sub1]	18.7 nM	24.7 nM	25.6 nM	19.1 nM	20.8 nM
AAUUGCGUUGGUGAGGCGGUUAAUGGCGAUACCAGCGUGGAAACACGCCCUUGGCAGCGCCAAAACAUGAGGAUCACCCAUGUUA [Liberec]	50.7 nM	149 nM			82.5 nM
AGCGAUAUGCAUGAUACCAGCUACAUGAGGAUCACCCAUGUGCGUCAGUAAUGACUGUGUAGCCCUUGGCAGCAUAGAGCAUGUA [Exclusion - Theophylline B (Freestyle 12)]	29.5 nM	47.2 nM			34.7 nM
UUAAUGAUAUAUCAUAUGAUAUAUCCAGAAGGAGCGUCAUAAAUGGCAGGUAGGUCGCUGAAGGCAACAUGAGGAUCACCCAUGU [#16 Same State - Arginine A]	20.1 nM	44.6 nM	32.6 nM	28.6 nM	24.4 nM
UGUAUGGACUGAAGGAGCGGGUAAUAAACUUGAGGAUCACCCAGGUAAUAGGCGAAAGCCACCCAGGUAGGUCGCAGUCCAUACU	32.7 nM	38.9 nM	23 nM	28.5 nM	25.6 nM
